Data set [1] deals with Leishmania infantum asparagine synthetase A, recombinant, poly-His-tagged (Leishmania infantum). The data set is described as follows: SEC; analytic size exclusion chromatography of purified recombinant LiAS-A on Superose 12 10/300GL, calibrated with standards (Kav against Log MW and Log Stokes radius); oligomeric state of the native protein. For orientation: Size exclusion chromatography separates by hydrodynamic size, large species first.

Substrate in data set [2]: NC(=O)CC[C@H](N)C(=O)O
The data set is described as follows: colorimetric assay of Asn formation, steady state. As to conditions: glutamine as nitrogen donor, other substrates in excess, 8.4 mM Mg2+, 85 mM Tris.HCl pH 7.6, 37°C. It counts as biochemical, Leishmania infantum. An excerpt:
(§1) colorimetric assay of Asn formation, steady state on LiAS-A (Leishmania infantum asparagine synthetase A)

Substrate in data set [3]: Nc1ncnc2c1ncn2[C@@H]1O[C@H](COP(=O)(O)OP(=O)(O)OP(=O)(O)O)[C@@H](O)[C@H]1O
The data set is described as follows: colorimetric assay of Asn formation, steady state. It counts as biochemical, Leishmania infantum. As to conditions: other substrates in excess, 8.4 mM Mg2+, 85 mM Tris.HCl pH 7.6, 37°C.
Source text: as §1

Substrate in data set [4]: N[C@@H](CC(=O)O)C(=O)O
The data set is described as follows: colorimetric assay of Asn formation, steady state. It counts as biochemical, Leishmania infantum. As to conditions: other substrates in excess, 8.4 mM Mg2+, 85 mM Tris.HCl pH 7.6, 37°C.
Source text: as §1

This note sets out measurements from paper PMC4714757, “Leishmania infantum Asparagine Synthetase A Is Dispensable for Parasites Survival and Infectivity” (PLoS Neglected Tropical Diseases, 2016).

The stoichiometry N is a count of units in the complex or per binding partner. As for “Leishmania infantum asparagine synthetase A, recombinant, poly-His-tagged (enzyme)”, in data set [1], the stoichiometry N stood at 2.

B1: LiAS-A (Leishmania infantum asparagine synthetase A) (Leishmania infantum) (protein)
chain: MSSSPQEYIDLQTRILRVKTIFAEELASALNLIQVECPMLACVGDGTQDNLSGVEKAVQVHVKEIPGANYEVVHSLAKWKRMTLGNHRFPVGRGIFTNMRALRVEETLDNIHSVYVDQWDWERVIAPADRCLEYLQATVRSLYEVLRETESRLCTEFPDIAPILPDSIKFVHTEQLLKRYPELDPKSREREAVKKLGAVFLIGIGCKLSHGDHHDVRAPDYDDWSSPVSVDSSKIGFPTADDEKPSVNTIMSLQGLNGDILVYNPVLDDVLELSSMGIRVDQEALRRQLEITGTSDRLQCRWHQCVLNGDLPQTIGGGIGQSRTVMFMLRKRHIGEVQCSVWPHEVTAQYSLL
notes: full length, 353 residues, N-terminal 6xHis tag (pET28a) with no cleavage stated, E. coli BL21(DE3)
Usually Km stands for the substrate concentration at which the rate is half of its maximum. For orientation: kcat means the maximal rate divided by the concentration of active sites. Consider B1, for which the Km in data set [2] was 1710 ± 280 µM; in data set [3] it was 1470 ± 40 µM; in data set [4] it was 6210 ± 1150 µM. Also, the kcat in data set [2] was 4.51 ± 0.19 s⁻¹; in data set [3], 4.18 ± 0.02 s⁻¹; in data set [4] it was 9.19 ± 0.69 s⁻¹.
